This is an account of results in patent US20240360208A1.

For assay [1], the target named is biotinylated human single chain FcRn (human) (UniProt P55899). In words: SPR Biacore 8K, sc huFcRn on SA chip, 50 nM antibody, 25 C, pH 7.4.
Assay [2] has the same target. In words: SPR Biacore 8K, sc huFcRn on SA chip, 50 nM antibody, 25 C, pH 6. A general note: In SPR one partner is held on a chip, and binding of the other changes the refractive index at the surface.
Assay [3] has the same target. In words: SPR Biacore 8K, sc huFcRn on SA chip, 50 nM antibody, 25 C, pH 5.
Assay [4] addresses monomeric Fcγ receptor FcγRIIa (human) (UniProt P12318). In words: SPR T200, Protein L capture, FcγR at 5 µg/ml, 25 C, pH 7.4.
Assay [5] addresses monomeric Fcγ receptor FcγRIIIa (human) (UniProt P08637). Described as above.
The target in assay [6] is monomeric Fcγ receptor FcγRIIb (human) (UniProt P31994). The assay is described as above.
The target in assay [7] is human CCL2 (MCP1) - wild type (wt) (human) (UniProt P13500). In words: cell-based or functional assay.

Sequence of biotinylated human single chain FcRn (human) (P55899 24-297 limits assumed, chain 1 of 2): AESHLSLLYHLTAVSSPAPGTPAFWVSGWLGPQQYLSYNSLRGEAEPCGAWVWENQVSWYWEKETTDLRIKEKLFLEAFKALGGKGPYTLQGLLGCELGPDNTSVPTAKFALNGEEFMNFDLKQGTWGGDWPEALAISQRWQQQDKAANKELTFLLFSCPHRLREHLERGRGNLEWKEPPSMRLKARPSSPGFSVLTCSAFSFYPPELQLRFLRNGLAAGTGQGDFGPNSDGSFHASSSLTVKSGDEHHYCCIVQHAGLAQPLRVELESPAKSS
Sequence of biotinylated human single chain FcRn (human) (chain, as listed by the source limits assumed, chain 2 of 2): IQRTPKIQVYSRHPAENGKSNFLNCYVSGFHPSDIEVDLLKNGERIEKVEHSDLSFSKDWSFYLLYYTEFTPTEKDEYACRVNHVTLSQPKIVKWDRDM
Sequence of monomeric Fcγ receptor FcγRIIIa (human) (P08637 17-208 limits assumed): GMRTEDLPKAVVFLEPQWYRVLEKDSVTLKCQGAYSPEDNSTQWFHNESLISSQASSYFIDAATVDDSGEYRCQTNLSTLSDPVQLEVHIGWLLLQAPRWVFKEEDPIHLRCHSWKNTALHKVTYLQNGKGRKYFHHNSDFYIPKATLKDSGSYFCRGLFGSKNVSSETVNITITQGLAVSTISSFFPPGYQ
Sequence of monomeric Fcγ receptor FcγRIIb (human) (P31994 43-217 limits assumed): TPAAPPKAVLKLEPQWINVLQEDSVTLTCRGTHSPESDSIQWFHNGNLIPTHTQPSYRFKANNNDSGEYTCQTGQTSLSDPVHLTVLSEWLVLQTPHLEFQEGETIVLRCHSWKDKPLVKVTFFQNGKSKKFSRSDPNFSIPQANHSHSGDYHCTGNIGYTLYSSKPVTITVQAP
Sequence of monomeric Fcγ receptor FcγRIIa (human) (P12318 34-217 limits assumed): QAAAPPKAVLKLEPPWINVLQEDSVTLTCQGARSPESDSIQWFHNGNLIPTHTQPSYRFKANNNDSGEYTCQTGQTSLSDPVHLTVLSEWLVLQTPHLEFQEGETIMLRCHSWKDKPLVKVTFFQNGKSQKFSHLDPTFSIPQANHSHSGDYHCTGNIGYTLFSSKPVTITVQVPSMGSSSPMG

With CNTO888 (antibody), the Binding amount of Ab (RU) per 1RU of FcRn-surface was 0 RU per RU in assay [1], 0.35 RU per RU in assay [2] and 0.9 RU per RU in assay [3]. The binding amounts of hFcγRs (RU) per 1 RU Ab in assay [4] came to 0.003 RU per RU; in assay [5], 0.001 RU per RU; in assay [6], 0 RU per RU.

“human CCL2/JE/MCP-1 Antibody (R&D Systems Cat #MAB279)” returned a THP1 chemotaxis [fold change compared to IgG control] in assay [7] of 3.7 fold.
